This data set is described as follows: label from the status in PepcDB records.
For the sequence “MRMKHLTVAALTLLLSVSCSQRQEDYPFRNPDLPIDERIDDLLKRLTAEEKIGQMMNTTPAIERLGIPEYDWWNEALHGVARAGKATVFPQAIAMAATFDDDALYETFTMVSDEARAKYHQYQKNKEYDRYKGLTFWTPNINIFRDPRWGRGMETYGEDPYLTERMGVAVVKGLQGDDPKYFKTHACAKHYAVHSGPEWNRHEFDVTVTPRDLWQTYLPAFEALVKKGNVQEVMCAYNRYQGKPCCSSDKLLIDILRNSWGYENIILSDCGAINDFWQRDERTPRHETHPDAESASADAVLNGTDLECGNSYKALIKALKEGKISENDLDVSLRRLLKGRFELGMFDPDERVPYAQIPYNVVESPEHVAQALEMAHKSMVLLKNKNNTLPLSKTIRKIAVVGPNAADSTMLWANYNGFPTHTVTILEGIRNKVPDTEVIYELGCNHAADFVIQDLGNHITSPAGQGFASEFYNNTEFKGEAVYKGLASQLHYTTGGNTQFAPNVNLTNFTARFTGEFEAPETEQVEIKLSGNDAFRLFIGDEKVAEVWENEYGAEKTYMLNAEKGKKYPVKIEYMQRTGSADLNFQIGTRRPVDYAATAAKVKDADVIVYVGGISPRLEGEEMPVNVEGFKKGDRTNIEIPKVQQEMVKALKATGKPVVYVLCTGSALALNWEDANIDAILNAWYGGQEAGTAVADILFGDYNPSGRLPVTFYKSIDQLPDFEDYSMKGRTYRYMTETPLYPFGYGLSYTNFAYRNAKLSSGKITKDQSVTLTFDIANTGKMDGDEVAQIYIKNPNDPEGPIKALKAFLRVHVKAGDSQEVNIELTPEAFHSFNDNTQTMEVRPGKYQILYGGSSDEKALERLELTIE”, the protein production result is recorded as “failed”.

“MRMKRFLTIVQILLVVIIIIFGYKIVQTYIEDKQERANYEKLQQKFQMLMSKHQEHVRPQFESLEKINKDIVGWIKLSGTSLNYPVLQGKTNHDYLNLDFEREHRRKGSIFMDFRNELKNLNHNTILYGHHVGDNTMFDVLEDYLKQSFYEKHKIIEFDNKYGKYQLQVFSAYKTTTKDNYIRTDFENDQDYQQFLDETKRKSVINSDVNVTVKDKIMTLSTCEDAYSETTKRIVVVAKIIKVS”: the protein production result is given as “not failed”.

On to “MRMQRQGCVQAQIAGQSGMLTYWDNRRDMPMIASHRWTALFVLVILMPLPAFAGTPEGGYRQPPEPLLSVMRAPLNPSPRPDPTGRTLLLVQRTQYPPIARVAEPYLKLAGVRVEPRTHSRHDMSNGYGIRSCLEGFSLVDIASGKQTAVSLPAGACPALPVWSPDGRRFAFNNTAADHVELWVGDVATGQVRKIDGVQLNPVLGGEIQWLGGSSTLLLKTVPQDLGPAPRKAAVPPGPEVKETIQGKGESSTYEARDTLSSPQDEALFTYYATAQLLTVDAATGSQRKLGTPAVYSNVDGAPDGRHVLVERLKPPYSYVTTYARFAHDVAVLDLETGNERVLANLPVADRVPVQGVPTGPRAYAWRANQPATLVWAEALDGGDWKTSVPARDTLMTLAAPFTAKPRALARVQQRYAGLSWFAEGGQALLDEYDENRHWRRTTLVDADRPGAGERVLFDLSTDDLYADPGLPEMRVLANGQAVLREAQGALFLSGQGASPAGDRPFLDRYTLATGKSQRLFRSDAHVDEVFFGFAGDETSRLLTWHQSLTDPPNVYVRTLGEPLPAPAAGEAAFASTATPVTHFADPTPLVRQIKKRLVSYKRKDGVDLSFTLYTPPGYKEGTRVPAILYAYPLDYADPSKAGQVSGASERDFTRLNYYQLLLLAGYAIIDDAAFPIVGDPKTAYDTYLQQLVDDATAAVDKAVELGVVDRQRIGVTGHSHGALMTANLLAHTDLFRAGAATSGSYNKTLTPFGFQSERRSFWKAPDVYAQASAFFHADKINEPLLIVHGMDDANPGTETTQAPRLFQAIRGNGGTARLVLLPFEPHWYSARESNEDLVAEMLEWFDRYVKNAPPRDAQHANDVR”, for which the protein production result was “failed”.

Take “MRMVAHRFLRPQEAHMQVLVRDNNVDQALRILKKKLQREGVFREMRLREAFEKPSIKKAREKAEAIGRQRKLARKQMQREGLLPTKPRKDKLEHHHHHH”: the protein production result is “failed”.

Consider “MRNKDLEPHSFELWLNAAKTNLDKYEMALIITATLGLRRGEVMGLRNESIKISHDQINDADVAQISIDMQRNTNELNGGPLKTKSSYRTIWAFGKTVDHLKYAMITADNLRQRNNIQAEKHWLWLNNDGNPLHPTHLNRLMRRVSNRSGVEVYPHLLRHYFATQAIAANKPQIDVMHYLGHKNLQMTADYTRSTKAASLNVFNSIDKFLLEHHHHHH”, for which the protein production result is on record as “failed”.

Consider “MRNKNMSTIYQTSATASAGRNGVVSTEDKLLELNLSYPKEMGGSGTATNPEQLFAVGYAACFSNAILHVAREAKVALKEAPVTATVGIGPNGQGGFALSVALAAHIALEDEQARQLVTVAHQVCPYSNAVRGNIDVQVSVNGLAL”, for which the protein production entry is “not failed”.

Regarding “MRNLKELKWSDLKTGIFFLLGLGFAAYLGLVIGKNTSIFTGVTTIKVMTRDVNGLAENNFVSVAGKKIGTVSKLDFSTQNDSLFVVAELKLQNEYANLVTKDSKASIRSLGVLGDKYVDIKAGTGKPVKEGDFIQLVPEDGLSALTDNAKSTIEKLNTLLDKLNNGDGPAGRLISDKQMGEDLQKTVMNLRKSSDELTRVSAELHNGKGLLPKLINDKSLADNTEQTIVNLKNAAAETETLMKQLNEGKGTLGKLNSDPALYNNLSKTLISLDTLLIDLKKRPNRYVRFTLF”, the protein production entry is “failed”.

Consider “MRNLKLRYCKELNAVAHPQHLLLQPELNGGASDIYFVVADNKIYAVQESGDVRLKVIADLPDIVGVEFLQLDNAICVASGAGEVILVDPQTGATSEGTFCDVGIESMAWSPNQEVVAFVTRTHNVVLMTSTFDVIAEQPLDAELDPDQQFVNVGWGKKETQFHGSEGKQAAKQKESDSTFIRDEQELNQDVSISWRGDGEFFVVSYVAAQLGRTFKVYDSEGKLNHTAEKSANLKDSVVWRPTGNWIAVPQQFPNKSTIALFEKNGLRHRELVLPFDLQEEPVVQLRWSEDSDILAIRTCAKEEQRVYLYTIGNYHWYLKQVLIFEQADPLALLHWDTRCGAEHTLHVLKESGKHLVYRWAFAVDRNNSIVGVIDGKRLLLTDFDEAIVPPPMSKIVLKFETYINAFISHGTSLWVYTCDRKIYLNEHIHTLGKELQKPIMLMPDAELSGLHLANLTHFSPHYLLATHSSAGSTRLLLLSYKDNDNKPGEWFYRVHSSVRINGLVNAVAVAPYAMNEFYVQTVNNGHTYEVSLKADKTLKVERSYVQLHEPADQIDWVIVKGCIWDGYTGALVTLRNQHLLHIDGYRIGEDVTSFCVVTNYLVYTQLNAMHFVQLDDRRQVASRNIERGAKIVTAVARKARVVLQLPRGNLEAICPRVLVLELVGDLLERGKYQKAIEMSRKQRINLNIIFDHDVKRFVSSVGAFLNDINEPQWLCLFLSELQNEDFTKGMYSSNYDASKQTYPSDYRVDQKVEYVCRLLEQQMNRFVSRFRLPLITAYVKLGCLEMALQVIWKEQQEDASLADQLLQHLLYLVDVNDLYNVALGTYDFGLVLFVAQKSQKDPKEFLPYLNDLKALPIDYRKFRIDDHLKRYTSALSHLAACGEQHYEEALEYIRKHGLYTDGLAFYREHIEFQKNIYVAYADHLRAIAKLDNASLMYERGGQLQQALLSAKHTLDWQRVLVLAKKLSEPLDQVAQSLVGPLQQQGRHMEAYELVKEHCQDRKRQFDVLLEGHLYSRAIYEAGLEDDDVSEKIAPALLAYGVQLESSLQADLQLFLDYKQRLLDIRRNQAKSGEGYIDTDVNLKEVDLLSDTTSLHSSQYSGTSRRTGKTFRSSKNRRKHERKLFSLKPGNPFEDIALIDALHNHVTKIAQQQQPVRDTCKALLQLANAADADPLAAALQREFKTLLQAVDAALDEIWTPELRGNGLMADHLTGPNVDYLALQKEQRYALLSPLKRFKPQLIMMDWQHEILQ”, for which the protein production result is “failed”.

On to “MRNLSRRIQSHQIRLRPPPFGAKRPVRRSESTSPPPRRRLIVGKRNRSAQVQYSMSHGLTHLSFWPLLFATLALTHVTIVSVTIFLHRHQAHRALSLHPLASHFFRFWLWLTTATVTKEWVSIHRKHHARCETPDDPHSPQCLGIFTVLLRGWMLYRKEARNTATLAQFGNGTPDDWLERKLYSRFPDLGITLMLALNLLLFGIGGLGVWAVQMLWIPFWAAGVVNGLGHHLGYRNFETPDASTNLWPIGFIIGGEELHNNHHAYPASAKFSSRRWEIDIGWLYIRLMTLLKLAKIRNMPPKTIIHTAEPSVDMDTVKAVLRNRAHVLSLYGRRVIVPVLRSEQAKSPKAGRRLLRQTRPLLLREYIKADPAAWHNFSRMLEDSQTLATIFQFKQQLKAVWTDSFTSHEERLERLRAWCLQAKQSDLPWLQHFADTLSGYRLQPAH”, for which the protein production entry is recorded as “failed”.

For “MRNPFERMPTVLTADELIDKAFRRAEKAASSFKPRGNKVKKARLREELRVRTVSNVVRDNLRKVLERTPGLSTLPKFYQELVDVLVDRDTFHKAMAGIDWAIRIIRELEERYVERIRYSNDPNEIAELRRQFYGRVASVLRDIDDRLRYLNKAREVLKDLPVVDLEIPTVVIAGHPNVGKSTLLKALTTAKPEIASYPFTTRGINVGQFEDGYFRYQIIDTPGLLDRPISERNEIEKQAILALRYLGNLIIYIFDPSEHCGFPLEEQIHLFEEVHGEFKDLPFLVVINKIDVADEENIKRLEKFVKEKGLNPIKISALKGTGIDLVKEEIIKTLRPLAEKVAREKIERELRRYRSYLLEHHHHHH”, the protein production entry was “failed”.

With “MRNTDDYIIFYHLVEQGSFSSAARHMELTKSVVSKRIAKLEQELGVQLLYRTTRTLTLTEAGQSFFVHAKAVYKAVATAEESIVGLGKNLSGNIKITVPTISGELILPGVISEFNDKYPDINIDMELDNRFVDIVNERFDLAIRTGMLPDSSLIARKLVDANWVVCASPKYLAKHGIPKQPIELTKHNCLVYSYQETGAREWAFKAGDKMYQVTVDGNLCTNNSSALRNVALLGQGVIYVPRVLVYEDLKQGSLIQLFKEETAKCLGIYAVYPYTRQQPEKIKIFIDHLYNSFQSQNHRF”, the protein production result is “failed”.

On to “MRNTILFGVSMILLANLCFGIMSAFVKITADYFSPMENVFYRSITMTLLLLLIYPFKPYRLKSYKQGGFKKLAFRVVVGGLAMLAFFYNIEKISLATATAFSQCAPIYTVLLSPLLLKEKLKRSTLISACIGIVGVVLISDPSVENVGPVEIFMGILSGIFVSLAYITLRDLREYYDKQAVILAFAFGMSLLGLVGMFIDIPFLSTGIHVPRKEDILWISLIGISGTLGQYFLTYAYMNAPAGIIAPIEYTRIVWGLLFGLYLGDTFLDLKSSLGVALILCSGLLIALPALLKELKKI”, for which the protein production entry was “failed”.

For “MRPGSVKRLYGVNTVQYAPCFMRDHRRDGIPHGNLPLELDAFVGRGAQLAELARTLDSARLVTLTGSGGVGKSRLAARAAARRAPRGGVWRVQLAPVRDEEFVDYAVVEALGLTDHTTRLPRETLLAHLAERELLLLLDGVEHLVDACAALVTELLGRAPGLTVLAVGRRPLGVAGERLVPLAPLGTEEAVELLTVRAGQRSVARDHDADPDADQREMRELCRRLDGIPLAIELAAGRLDALSPGQMLRRLDDRFRLLTGGDRTALPRHRTLRTAIGWSHELCTPPERLLWARLSVFAGPFDLEAAEYVCSGDGMPADDVLDVLCALLSQSVLTREESPAGVRYRMLDTVRAYGADWLAATGDADRLRRRHRDWYVGLATWCELEWFSPRQGEVAARVDAELPNLRSALEHCLDEPDGAHLGQYLAGALWFHWVGCGRLSEGRHWLEQAVRLDAEPTAGEQSRLKALWVLAYVAILQGDTVPALAALQECREEAERSANPTAAAYAEHRTGCLALVTDDLPRAETLLRSALHRYREIGELNSNVLMGQVELAMARAFQGDLPDAVRLCEDVRQVCEDHGERWARGYALYVLAYAAWSDGEPVRARELLADCLGSAHRFRDQLGSVLAVELLALVTVAEGDAAEAAVLQGAAGRMWPSVGLPLFGSAHYNAPHELCEAAAREQLGDERYEECVRHGARLGRREAVARALRRPGARASLPAPRPTAVRRAPAGARTAKPAASPTRKGGETAG”, the protein production entry is “failed”.

Consider “MRPKANQNHKLKVLLVFLLATLILIFIVRSTLTSSQEHQTPQETRSTRCSGACNKLPRSLAQALIHYSTSVITPQQTLKEIAVSSRVLGKKSPCNFLVFGLGHDSLMWSSLNYGGRTVFLEEDEAWIKQIKRRFPMLESYHVTYDSKVNQADNLIEVGKGPECTAIGDPRYSMCQLALKGLPAEIYETGWDLIMVDAPTGYYDEAPGRMTAIYTAGMMARNRKQGGETDVFVHDVNREIEDKFSKAFLCEGYMKKQEGRLRHFIIPSYRDGSESESNRPFCP”, for which the protein production entry was “failed”.

Source of the values: a protein production outcome set (Wang et al. 2014).
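Further: failed if final PepcDB status was selected cloned or expressed and not failed if soluble or beyond.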
